In patent US20230250160A1 (HOBER BIOTECH, published 2023):
Read-outs that look alike come from different tables or passages of the source.

T1: myeloid-derived growth factor (human (produced in the Human Secretome …, UniProt Q969H8 32-173, limits assumed))
T1 construct: also called MYDGF; bMYDGF
T1 sequence (looked up): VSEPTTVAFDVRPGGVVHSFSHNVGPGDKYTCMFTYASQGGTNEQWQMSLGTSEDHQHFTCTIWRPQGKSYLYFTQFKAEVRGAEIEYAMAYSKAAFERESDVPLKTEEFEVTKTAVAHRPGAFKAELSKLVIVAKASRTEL


Key:
Human Serum Albumin [1] = target: T2, Human Serum Albumin (human, UniProt P02768 25-609); assay: SPR Biacore T200, HSA on CM5 chip, ADAPT injected, 1:1 fit
T2 construct: also called HSA
Experimental: (§1) Sensor-based binding analysis was performed using a Biacore T200 system (GE Healthcare, Stockholm, Sweden). All analyses were conducted using CM-5 sensor chips coated with the target antigen, another irrelevant antigen and HSA. One surface was left as reference. Binding analysis was performed in PBS-T at 25° C. The ADAPT variants were diluted in PBS-T to 500 nM, 250 nM, 125 nM, 62.5 nM and 31.25 nM. The samples were injected at a flow rate of 30 ul/min for 120 s followed by injection of PBS-T for 240 s to monitor the dissociation. Surfaces were regenerated with 10 mM HCl. Kinetic parameters were determined using the Biacore Insight Evaluation software, assuming a 1:1 binding.

[2] = target: T3, Human recombinant Insulin (human, UniProt P01308 25-54; P01308 90-110, limits assumed); assay: SPR Biacore T200, target on CM5 chip, ADAPT injected, 1:1 fit
T3 construct: also called bInsulin
Experimental: as §1

[3] = target: T3, Human recombinant Insulin; assay: as above; remark: listed apart in the source
Experimental: as §1
(§2) Variants with sufficient alpha helical structure as well as monomeric elution profiles on the SEC column were further analyzed for binding towards their target protein as well as to HSA. The binding towards the target antigen used in the selection was measured by a multi-cycle analysis using SPR, showing that several binders had affinities in the μM-pM range. […] After target binding had been established, the variants were also evaluated for their ability to simultaneously bind to HSA. This was done either through an SPR capture assay or an experiment where the ADAPT was pre-incubated with saturating conditions of HSA before the binding towards the target was analyzed. […] In total, thirteen of the characterized binders from the selections towards TNFα, PSA, ANG, MYDGF and Insulin could bind both HSA and its target antigen simultaneously. FIG. 5 contains sensorgrams for the thirteen variants in the capture assay.

Human Serum Albumin [4] = target: T2, Human Serum Albumin; assay: SPR Biacore T200, HSA on CM5 chip, ADAPT injected, 1:1 fit; remark: listed apart in the source
Experimental: as §1

Her2 = target: T4, Her2 (UniProt P04626 23-652, limits assumed); assay: SPR (Biacore), ADAPT injected alone at 31.25-500 nM over immobilised Her2 (irrelevant target)
T4 construct: also called irrelevant target Her2
Experimental: as §1
Variants with sufficient alpha helical structure as well as monomeric elution profiles on the SEC column were further analyzed for binding towards their target protein as well as to HSA. The binding towards the target antigen used in the selection was measured by a multi-cycle analysis using SPR, showing that several binders had affinities in the μM-pM range. […] After target binding had been established, the variants were also evaluated for their ability to simultaneously bind to HSA. This was done either through an SPR capture assay or an experiment where the ADAPT was pre-incubated with saturating conditions of HSA before the binding towards the target was analyzed. […]

[5] = target: T1, myeloid-derived growth factor; assay: SPR Biacore T200, target on CM5 chip, ADAPT injected, 1:1 fit
Experimental: as §1

[6] = target: T1, myeloid-derived growth factor; assay: as above; remark: listed apart in the source
Experimental: as §1, §2

T2 sequence (P02768 25-609 limits assumed): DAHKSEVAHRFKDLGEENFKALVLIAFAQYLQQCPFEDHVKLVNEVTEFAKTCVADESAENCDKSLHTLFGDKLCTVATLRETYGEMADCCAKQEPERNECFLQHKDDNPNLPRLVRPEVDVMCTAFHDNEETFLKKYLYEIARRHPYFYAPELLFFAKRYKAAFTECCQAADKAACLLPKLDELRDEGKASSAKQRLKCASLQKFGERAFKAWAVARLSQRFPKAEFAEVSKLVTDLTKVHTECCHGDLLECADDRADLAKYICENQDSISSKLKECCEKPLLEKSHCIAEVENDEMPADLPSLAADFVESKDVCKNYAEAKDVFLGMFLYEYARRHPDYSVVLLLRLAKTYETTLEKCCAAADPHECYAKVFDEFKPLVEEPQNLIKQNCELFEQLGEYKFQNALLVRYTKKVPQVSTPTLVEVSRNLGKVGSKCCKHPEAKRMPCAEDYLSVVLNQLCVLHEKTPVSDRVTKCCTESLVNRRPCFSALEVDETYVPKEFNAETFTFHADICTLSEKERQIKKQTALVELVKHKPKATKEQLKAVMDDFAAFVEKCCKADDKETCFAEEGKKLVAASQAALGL
T3 sequence (P01308 25-54 limits assumed, chain 1 of 2): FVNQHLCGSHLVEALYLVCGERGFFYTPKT
T3 sequence (P01308 90-110 limits assumed, chain 2 of 2): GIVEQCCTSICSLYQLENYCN

Kd (Human Serum Albumin [1]) [nM] | Kd [2] [nM] | koff [2] [s⁻¹] | kon [2] [M⁻¹ s⁻¹] | Kd [3] [nM] | Kd (Human Serum Albumin [4]) [nM] | koff (Human Serum Albumin [4]) [s⁻¹] | kon (Human Serum Albumin [4]) [M⁻¹ s⁻¹] | binding result (Her2) | Kd [5] [nM] | koff [5] [s⁻¹] | kon [5] [M⁻¹ s⁻¹] | Kd [6] [nM] | Binder
1.5 | 670 | 0.12 | 180000 | 670 | 1.5 | 0.00093 | 640000 | no binding (tested: 500 nM) |  |  |  |  | LAIAKAYAQYELSFYGVSDFYRELIVKAKTVEGVEALKLHILAALP (designed binder, also called INS_02) [ADAPT variant Insulin_02]
4.7 |  |  |  |  | 4.7 | 0.00014 | 30000 |  | 230 | 0.082 | 350000 | 230 | LWWAKVWAVAELQKYGVSDFYFKLIDKAKTVEGVEALKLHILAALP (designed binder) [ADAPT variant MYDGF_07]
12 |  |  |  |  | 12 | 0.00028 | 23000 |  | 180 | 0.18 | 1e+06 | 180 | LWWAKVSAIKELQAYGVSDFYYMLITKAKTVEGVEALKLHILAALP (designed binder) [ADAPT variant MYDGF_08]
